In test [1] the target is T1, human c-Met (human, UniProt P08581 25-1390).
T1 construct: whole, on cells; Endogenous receptor on human cell lines; alpha and beta sub-units come from one precursor; also called c-Met protein; HGF receptor
As to the kind of experiment: confocal fluorescence microscopy on human c-Met expressing SNU-638 cells. The protocol:
To human c-Met expressing cells (human SNU-638 cells) or human c-Met non-expressing cells (human SNU-216 cells) cultured on a glass-bottom dish were added a RPMI1640 medium containing 1 mg/L of Hoechst 33342, a nuclear staining reagent, an anti-human c-Met antibody, and 1 uM of L5-2-fluorescein, D4-3-fluorescein, D5-4-fluorescein, D4-3NMe-fluorescein, or D4-3scr-fluorescein and the resulting mixture was incubated in 5% CO₂ at 37° C. for 5 minutes. Then, a RPMI1640 medium containing an HRP-anti-rat secondary antibody and 1 μM of L5-2-fluorescein, D4-3-fluorescein, D5-4-fluorescein, D4-3NMe-fluorescein, or D4-3scr-fluorescein was added and the resulting mixture was incubated in 5% CO₂ at 37° C. for 5 minutes.
The cells were washed three times with a D-MEM medium and were microscopically observed in a new RPMI1640 medium. The localization of the peptide was observed using a confocal fluorescence microscope for the microscopic observation.

The target in test [2] is T2, c-Met-Fc chimera protein (UniProt P08581 25-932, limits assumed).
T2 construct: Captured on the SPR chip by an anti-IgG antibody; not shown: Fc part
T2 sequence (P08581 25-932 limits assumed, change not shown): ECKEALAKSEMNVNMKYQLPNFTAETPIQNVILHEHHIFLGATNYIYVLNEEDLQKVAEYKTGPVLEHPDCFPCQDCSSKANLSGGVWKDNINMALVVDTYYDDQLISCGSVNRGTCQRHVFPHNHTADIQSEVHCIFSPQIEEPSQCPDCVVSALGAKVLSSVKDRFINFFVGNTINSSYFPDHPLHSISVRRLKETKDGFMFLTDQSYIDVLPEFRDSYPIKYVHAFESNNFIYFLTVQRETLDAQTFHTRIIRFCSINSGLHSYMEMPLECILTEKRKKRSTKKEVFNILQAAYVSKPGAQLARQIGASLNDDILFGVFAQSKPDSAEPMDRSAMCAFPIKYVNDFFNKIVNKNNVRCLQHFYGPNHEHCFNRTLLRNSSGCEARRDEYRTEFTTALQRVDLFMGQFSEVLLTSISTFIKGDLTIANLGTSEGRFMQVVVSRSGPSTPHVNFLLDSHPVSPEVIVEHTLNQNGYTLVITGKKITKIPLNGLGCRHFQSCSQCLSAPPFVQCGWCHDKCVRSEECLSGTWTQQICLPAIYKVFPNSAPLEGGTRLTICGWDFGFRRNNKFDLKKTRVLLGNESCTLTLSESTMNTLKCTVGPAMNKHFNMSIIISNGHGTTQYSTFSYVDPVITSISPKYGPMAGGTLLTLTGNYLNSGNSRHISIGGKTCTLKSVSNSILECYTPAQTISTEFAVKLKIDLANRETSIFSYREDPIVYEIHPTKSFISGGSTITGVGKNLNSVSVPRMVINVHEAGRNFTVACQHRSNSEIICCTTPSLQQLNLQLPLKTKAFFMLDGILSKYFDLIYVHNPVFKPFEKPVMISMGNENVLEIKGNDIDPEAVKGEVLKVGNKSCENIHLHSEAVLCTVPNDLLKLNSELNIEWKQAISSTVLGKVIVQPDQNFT
As to the kind of experiment: SPR (Biacore), c-Met-Fc captured by anti-IgG on CM5, single-cycle kinetics. On the procedure: (§1) As a sensor chip, Sensor Chip CM5 was used and an anti-IgG antibody was immobilized on a measurement lane and a control lane by using Human Antibody Capture Kit.
(§2) On the measurement lane was immobilized c-Met-Fc, while on the control lane was immobilized Fc protein.
(§3) As a running buffer, HBS-EP+ buffer containing 0.1% DMSO was used and a dissociation constant of the thioether macrocyclic peptide was calculated at 5 different concentrations by using the single-kinetics method.

Test [3] deals with T2, c-Met-Fc chimera protein. As to the kind of experiment: SPR presumed (Biacore as in 9-1; method not given), c-Met-Fc on chip.
Test [4] concerns the target T2, c-Met-Fc chimera protein. The test is described as follows: SPR (Biacore), c-Met-Fc captured by anti-IgG on CM5, single-cycle kinetics. The protocol:
as §1, §2, §3
This is another data set of the same source.

Test [5] concerns the target T2, c-Met-Fc chimera protein. The test is described as follows: SPR presumed (Biacore as in 9-1; method not given), c-Met-Fc on chip. The source holds these as a separate data set.

Bridges are numbered along the chain shown (N, C = ends). Where no end group is shown, it is not given here. fluorescein = fluorescein fluorescent label attached to the peptide

T1 sequence (P08581 25-1390): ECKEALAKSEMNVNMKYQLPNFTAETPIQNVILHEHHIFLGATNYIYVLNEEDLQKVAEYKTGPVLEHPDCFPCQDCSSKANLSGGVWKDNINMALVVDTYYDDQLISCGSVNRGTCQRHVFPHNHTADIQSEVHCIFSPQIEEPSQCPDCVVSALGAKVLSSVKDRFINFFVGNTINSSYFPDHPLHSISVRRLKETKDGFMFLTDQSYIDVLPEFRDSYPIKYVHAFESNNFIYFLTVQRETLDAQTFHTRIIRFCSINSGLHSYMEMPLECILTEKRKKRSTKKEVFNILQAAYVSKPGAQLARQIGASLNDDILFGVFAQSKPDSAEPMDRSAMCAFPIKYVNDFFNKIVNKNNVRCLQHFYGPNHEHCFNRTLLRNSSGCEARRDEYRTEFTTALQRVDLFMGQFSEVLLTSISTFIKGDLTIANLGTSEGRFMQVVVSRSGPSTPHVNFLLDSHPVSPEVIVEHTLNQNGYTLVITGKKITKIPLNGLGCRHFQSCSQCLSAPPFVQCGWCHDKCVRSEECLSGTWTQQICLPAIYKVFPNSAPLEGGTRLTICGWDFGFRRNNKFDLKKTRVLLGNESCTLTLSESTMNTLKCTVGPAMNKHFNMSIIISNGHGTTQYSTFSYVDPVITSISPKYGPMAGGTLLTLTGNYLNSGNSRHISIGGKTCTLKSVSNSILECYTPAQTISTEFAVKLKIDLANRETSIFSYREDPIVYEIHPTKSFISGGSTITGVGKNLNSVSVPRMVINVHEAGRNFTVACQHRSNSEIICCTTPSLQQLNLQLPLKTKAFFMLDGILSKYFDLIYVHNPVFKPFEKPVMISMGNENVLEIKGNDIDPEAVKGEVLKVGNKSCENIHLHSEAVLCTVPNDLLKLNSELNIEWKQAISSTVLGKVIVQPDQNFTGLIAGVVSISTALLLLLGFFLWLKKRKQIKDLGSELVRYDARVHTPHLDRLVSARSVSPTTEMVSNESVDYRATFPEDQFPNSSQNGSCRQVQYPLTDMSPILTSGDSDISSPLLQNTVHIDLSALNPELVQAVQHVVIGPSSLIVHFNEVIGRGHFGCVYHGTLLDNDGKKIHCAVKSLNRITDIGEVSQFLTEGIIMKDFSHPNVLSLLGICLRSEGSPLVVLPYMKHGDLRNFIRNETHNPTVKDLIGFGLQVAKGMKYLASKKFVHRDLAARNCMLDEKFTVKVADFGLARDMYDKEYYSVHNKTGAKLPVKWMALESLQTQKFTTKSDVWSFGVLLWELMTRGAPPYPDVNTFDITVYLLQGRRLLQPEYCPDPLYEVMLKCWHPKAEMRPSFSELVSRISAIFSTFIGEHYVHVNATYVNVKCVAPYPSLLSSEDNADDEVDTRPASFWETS

B1: D4-3scr-fluorescein (peptide)
peptide: {CH2CO}-YERVNHLFRNQTWDRCGK(fluorescein)
modifications: thioether N-16
notes: Negative control
For the molecule B1, the binding result in test [1] is listed as “no binding (tested: 1 uM)”.

B2: D4-3 (peptide)
peptide: {CH2CO}-YRQFNRRTHEVWNLDCG
modifications: thioether N-16; not fully specified
notes: also called D4-3 peptide; D4-3 Monomer
Regarding B2, the Kd amounted to 3.4 nM in test [2], 8.5 nM in test [3], 3.4 nM in test [4] and 8.5 nM in test [5]. For the same molecule, the koff in test [2] was 0.008 s⁻¹; in test [3] it was 0.011 s⁻¹; in test [4], 0.008 s⁻¹; in test [5], 0.011 s⁻¹. Also, the kon came to 2.4e+06 M⁻¹ s⁻¹ in test [2], 1.3e+06 M⁻¹ s⁻¹ in test [3], 2.4e+06 M⁻¹ s⁻¹ in test [4] and 1.3e+06 M⁻¹ s⁻¹ in test [5].

Values taken from US20160237119A1 (UNIVERSITY OF TOKYO, published 2016).
